Sequences and labels used below:
B1: HDV Ribozyme (parent)
chain: GGCCGGCAUGGUCCCAGCCUCCUCGCUGGCGCCGGCUGGGCAACAUUCCGAGGGGACCGUCCCCUCGGUAAUGGCGAAUGGGACCCA

The data set covers variants of B1. Put plainly: self-cleavage, relative activity (ratio to wild type); higher = more cleavage; co-transcriptional.
For the variant A51U C85U, the self-cleavage was 0.916.
With A51U C85G, the self-cleavage turned out to be 0.831.
With G53A U60C, the self-cleavage turned out to be 0.935.
G53A G55C: the self-cleavage stood at 0.912.
With G53A G55A, the self-cleavage turned out to be 0.923.
With A51C U60C, the self-cleavage is 1.15.
On to A51C C63G, for which the self-cleavage is 0.322.
Next, A51C C63A: 0.475; C49A G80U: 0.188.
As to A51U A71G, the self-cleavage was 0.91.
The figure for A51G G81C is 0.266.
Turning to A51C G80C, the self-cleavage was found to be 0.0437.
On to G50A C75G, for which the self-cleavage was determined as 0.0852.
Next, G50A C63U: 1.13.
Turning to C49G A77C, the self-cleavage amounted to 0.119.
Next, G52A G68A: 0.788.
The figure for C49G G55C is 1.03; for G50C U69G it is 1.05; for G50C U69A it is 0.831.
Consider G50U C86A, for which the self-cleavage turned out to be 0.727.
Next, G52A C64G: 0.935; C49U C75A: 0.196.
As to G52U C75G, the self-cleavage came to 0.297.
Next, G50U U69C: 0.962; G50A A77G: 0.743; A51G A87G: 1.
With A51G A87C, the self-cleavage came out at 0.751.
The figure for C49G A83U is 0.35; for G52C G55C it is 1.03; for G50U G82U it is 0.633.
The figure for A51C A87C is 0.937.
The figure for C49G A56C is 0.785; for G50U C85U it is 1.02.
For C49G G76U, the self-cleavage came out at 1.17.
Next, G50A G54U: 0.852; G53A C63U: 0.812; G53A C66A: 0.794.
Next, A51U G81C: 0.407.
C49G A70G: the self-cleavage worked out at 0.733.
Next, G50A A78C: 0.138; G50A A78G: 0.923; G50A A87G: 1.01.
As for G52C U60G, the self-cleavage turned out to be 0.944.
Consider G52C U60A, for which the self-cleavage is 1.02.
Regarding G50U G80C, the self-cleavage turned out to be 0.111.
Turning to G52C G82A, the self-cleavage was 0.712.
As to G52A G82U, the self-cleavage is 0.367.
The figure for A51C U79C is 0.447; for G50C A87U it is 1.15; for G50C A87C it is 0.95.
Consider G50C A87G, for which the self-cleavage is 0.974.
Regarding C49U U65C, the self-cleavage is 0.902.
Regarding A51G A70G, the self-cleavage is 1.16.
Take A51C A56G: the self-cleavage was 0.831.
The figure for G52U C63A is 0.806.
Regarding C49U G55A, the self-cleavage was determined as 0.866.
Next, G50U G53C: 0.437.
Next, G50U G53A: 0.971; G50U A51C: 0.889; A51G C58G: 0.969.
As to G53A C86U, the self-cleavage came to 0.881.
Next, A51U G53A: 0.927; A51C C61G: 0.731; G52U A70U: 0.831.
For the variant G52U A70C, the self-cleavage was determined as 0.577.
Next, G53C A87C: 1.01.
The figure for G52A C61A is 1.19; for A51G A56U it is 1; for A51G A56C it is 0.733.
As to A51C G76U, the self-cleavage was 1.11.
Consider G50A U72A, for which the self-cleavage amounted to 0.677.
As for G52U C84U, the self-cleavage is 0.71.
The figure for G52A C62G is 0.397; for C49U C85A it is 1.17; for G50C C84A it is 0.743.
The figure for G52C A83C is 0.475.
The figure for G50U C58U is 0.909; for G50U A71U it is 1.02.
C49U C62A: the self-cleavage is 0.652.
For A51G C63A, the self-cleavage stood at 0.734.
For G52U U60G, the self-cleavage worked out at 0.978.
Consider G52U U60A, for which the self-cleavage was 1.05.
Regarding C49G C57U, the self-cleavage stood at 0.945.
The figure for A51U U72G is 0.534.
Next, G50C A56U: 0.935; G50C A56G: 0.734.
Next, A51U C63U: 0.88.
On to A51U A78G, for which the self-cleavage came out at 0.532.
G53A C61G: the self-cleavage is 0.751.
The figure for C49U C64G is 0.684; for C49U C58A it is 1.02.
Take C49U C58G: the self-cleavage was 1.01.
As for A51G C86G, the self-cleavage worked out at 0.702.
The figure for G50C G53U is 0.338.
In the case of G50C G53A, the self-cleavage came out at 0.665.
Regarding G50U A83U, the self-cleavage turned out to be 0.683.
With A51G A83C, the self-cleavage was determined as 0.199.
Next, C49G A78G: 0.266; A51C C84U: 0.831; A51C C84G: 0.536.
The figure for G50C G81C is 0.125.
The figure for G52C C84U is 0.537; for G50A G52U it is 0.688; for G50U C63G it is 0.332.
Take G50U C63U: the self-cleavage was 0.909.
Next, G50U G74A: 0.453; G50U G74C: 0.214; G52C C75A: 0.153.
The figure for G52U A83G is 0.81; for G52U G67U it is 0.205; for A51C U72C it is 0.475.
C49U G52U: the self-cleavage was determined as 0.687.
Consider A51U C62A, for which the self-cleavage came out at 0.759.
Next, G53C C62G: 1.01; G50A U69C: 0.688.
Turning to A51U U69A, the self-cleavage is 0.95.
As to C49A U65C, the self-cleavage came out at 0.923.
The figure for C49A U65G is 0.539; for C49G C64U it is 0.973; for C49G C64A it is 0.375.
Next, A51C C57A: 1.02; G52U U69A: 1.09; G52U U69C: 0.831.
As to G50A C57U, the self-cleavage was 1.
Next, G50A C57A: 0.972; C49G G54U: 0.519; G50A G68A: 0.957.
G50A G68C: the self-cleavage was found to be 0.631.
Regarding G53A C58G, the self-cleavage was 0.935.
The figure for G52C G74U is 0.312; for G50C G76U it is 1.04.
In the case of C49A G82U, the self-cleavage amounted to 0.437.
Next, A51C G73A: 0.383; G52C A87U: 1; G52C A56G: 0.851.
Turning to G52C A56C, the self-cleavage turned out to be 0.95.
Next, G52C A56U: 1.12; C49U G67C: 1.1; A51G C62U: 1.01.
The figure for A51G A77C is 0.322.
For A51G A77U, the self-cleavage was 0.682.
Consider G52C C63U, for which the self-cleavage turned out to be 0.919.
Turning to G52C C63A, the self-cleavage worked out at 1.05.
The figure for A51U A56G is 1.11.
Next, G52A C58G: 0.974.
Next, G52A C58U: 0.888; G53A A56U: 0.873; G53C A77G: 0.88.
For the variant G50A U65A, the self-cleavage was found to be 1.02.
Regarding G53C C57A, the self-cleavage worked out at 0.95.
The figure for G52C G54U is 0.513; for G50U C84U it is 0.665; for C49A U69C it is 1.13.
For the variant A51C A78C, the self-cleavage came to 0.277.
The figure for G53A U65G is 0.708; for A51C G68C it is 0.762; for A51C G68A it is 0.916.
Next, G52C G73C: 0.339; G53C A71C: 0.356.
Turning to G53C A71G, the self-cleavage came out at 1.07.
As for G50A C84U, the self-cleavage came to 0.754.
In the case of G52U G82U, the self-cleavage stood at 0.382.
For A51G G80A, the self-cleavage amounted to 0.376.
For G50A C61G, the self-cleavage worked out at 0.91.
For G53C C75G, the self-cleavage was 0.0627.
G53C C75A: the self-cleavage was 0.175.
For the variant G50C G82C, the self-cleavage was 0.383.

(Values after the RNAGym collection of RNA variant scans (doi:10.7554/elife.80360).)
